Data: publication doi:10.1101/459164

Assays:
[1] = target: MT145 SOSIP.664 trimer (chimpanzee SIVcpzPtt MT145 Env, wild-type V2) (SIVcpzPtt (chimpanzee SIV), isolate MT145)
[2] = target: MT145K SOSIP.664 trimer (chimpanzee SIVcpzPtt MT145 Env, Q171K) (SIVcpzPtt (chimpanzee SIV), isolate MT145); assay: cryo-EM structure

Substance | stoichiometry N [1] | stoichiometry N [2]
MT145 SOSIP.664 trimer (chimpanzee SIVcpzPtt MT145 Env, wild-type V2) (complex) | 3 | 
MT145K SOSIP.664 trimer (chimpanzee SIVcpzPtt MT145 Env, Q171K) (complex) |  | 3
